This series concerns the molecule itself. Briefly: SEC. (In general: SEC sorts molecules by how far they enter the pores of the column.)

A word on the stoichiometry N: it is the number of molecules, sites or subunits per partner or assembly.

B1: PKM2 mutant with triple mutations (R399E, K422A, and N523A) (enzyme)
chain: not shown
Turning to B1, the “stoichiometry N” value stood at 2.

The values are drawn from PMC7644948 (iScience, 2020).
